The text below walks through data of patent publication US20180355060A1 (published 2018).

A word on the kon: it is the rate constant with which the complex forms. The term Kd denotes the free concentration of one partner at which half of the binding sites on the other are occupied at equilibrium, for simple one-to-one binding. For orientation: koff means the first-order rate constant of dissociation.

In experiment [1] the target is T1, human transglutaminase type 2 (TG2) (human, UniProt P21980 1-687).
T1 sequence: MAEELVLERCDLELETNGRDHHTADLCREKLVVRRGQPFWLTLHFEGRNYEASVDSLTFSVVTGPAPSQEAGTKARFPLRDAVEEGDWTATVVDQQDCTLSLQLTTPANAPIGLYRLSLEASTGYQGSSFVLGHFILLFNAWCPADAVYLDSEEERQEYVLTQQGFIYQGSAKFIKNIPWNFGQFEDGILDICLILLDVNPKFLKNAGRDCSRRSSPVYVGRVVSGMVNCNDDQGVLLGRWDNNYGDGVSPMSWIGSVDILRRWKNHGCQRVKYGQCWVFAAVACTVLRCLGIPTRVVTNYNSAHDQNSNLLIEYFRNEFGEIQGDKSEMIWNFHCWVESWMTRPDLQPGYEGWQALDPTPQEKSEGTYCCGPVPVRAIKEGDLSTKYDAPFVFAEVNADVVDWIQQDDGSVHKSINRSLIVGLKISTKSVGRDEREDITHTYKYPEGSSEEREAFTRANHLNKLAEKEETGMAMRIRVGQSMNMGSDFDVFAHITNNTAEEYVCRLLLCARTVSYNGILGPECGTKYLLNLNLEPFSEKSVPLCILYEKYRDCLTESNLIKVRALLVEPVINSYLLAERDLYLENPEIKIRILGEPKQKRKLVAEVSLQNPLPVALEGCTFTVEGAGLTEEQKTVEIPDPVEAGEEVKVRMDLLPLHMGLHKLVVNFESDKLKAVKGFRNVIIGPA
Kind of experiment: cell-based or functional assay.

The target in experiment [2] is T1, human transglutaminase type 2 (TG2). In words: SPR (Biacore T200), antibody captured on anti-human IgG1 Fc chip, human TG2 injected; Ca2+ condition not marked in this row. The method, then:
(§1) The method employed to determine the affinity of the anti-TG2 antibodies involved the capture of the chimeric or humanised antibodies on a MAH coated CM5 chip, followed by the injection of a series of TG2 samples in running buffer. The running buffer was 1× HBS-P+ containing 1 mM CaCl₂, or 1×HBS-EP+ for calcium-free experiments. Antibody capture was carried out for a contact time of 120 seconds at a flow rate of 10 μl/min resulting in the capture of approximately 40-80 RU. TG2 was injected over the immobilised antibody at concentrations ranging from 25 nM to 400 nM with a contact time up to 600 seconds at a flow rate of 30 μl/min. Dissociation of TG2 was typically measured for up to 5400 seconds (1.5 hours). Regeneration of the chip was then performed using 3 M MgCl₂, for a contact time of 60 seconds at a flow rate of […], followed by a 300s stabilisation period before the next sample. For each of human and cynomolgus monkey TG2, at least 5 injections at a variety of concentrations were performed in at least two separate experiments.
(§2) Kinetic data were exported from the Biacore T200 Evaluation Software and analysed using GraphPad Prism, where the association phases and dissociation phases were analysed separately using a one phase association model and one-phase exponential decay model respectively. Association rates (kₒₙ) were calculated for each curve individually, and dissociation rates (koff) values from the long dissociation phase data collected. Where koff values were calculated to be <1×10⁻⁵ s⁻¹, values were set at 1×10⁻⁵ for analysis, as rates slower than this could not be estimated accurately. Values for kₒₙ and koff are presented in the tables below as the mean of the individual calculated values for each antibody for each TG2 species from multiple concentrations +/−1 standard deviation. KD values are calculated as mean koff/mean kₒₙ.
Background: SPR reads the build-up and loss of mass on a sensor chip optically.

For experiment [3], the target named is T2, cynomolgus monkey TG2 (cynomolgus monkey, UniProt A0A2K5VXI8 2-687).
T2 construct: Recombinant, from Trenzyme; also called cynomogulus monkey TG2; cyano TG2
T2 sequence: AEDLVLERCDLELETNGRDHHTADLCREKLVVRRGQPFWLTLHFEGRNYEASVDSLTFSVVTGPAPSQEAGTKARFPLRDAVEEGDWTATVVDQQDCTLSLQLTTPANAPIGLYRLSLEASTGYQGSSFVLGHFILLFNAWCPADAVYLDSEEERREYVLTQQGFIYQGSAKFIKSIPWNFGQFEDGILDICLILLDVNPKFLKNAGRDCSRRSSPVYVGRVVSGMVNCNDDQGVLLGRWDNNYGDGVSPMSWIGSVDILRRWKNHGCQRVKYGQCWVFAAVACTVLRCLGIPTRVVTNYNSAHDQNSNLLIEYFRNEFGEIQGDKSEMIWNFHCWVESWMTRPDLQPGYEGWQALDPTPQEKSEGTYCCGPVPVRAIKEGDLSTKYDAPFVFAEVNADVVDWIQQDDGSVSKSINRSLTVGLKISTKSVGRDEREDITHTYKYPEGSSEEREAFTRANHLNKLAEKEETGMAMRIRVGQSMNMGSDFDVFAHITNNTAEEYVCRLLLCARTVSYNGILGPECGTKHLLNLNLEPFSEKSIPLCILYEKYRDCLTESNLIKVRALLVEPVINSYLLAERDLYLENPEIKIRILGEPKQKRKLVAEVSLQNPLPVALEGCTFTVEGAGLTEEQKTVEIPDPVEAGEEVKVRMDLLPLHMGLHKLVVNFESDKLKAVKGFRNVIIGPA
In words: SPR (Biacore T200), antibody captured on anti-human IgG1 Fc chip, cynomolgus TG2 injected; Ca2+ condition not marked in this row. The procedure: as §1, §2

The target of experiment [4] is T3, rat TG2 (rat, UniProt Q9WVJ6 1-686).
T3 sequence: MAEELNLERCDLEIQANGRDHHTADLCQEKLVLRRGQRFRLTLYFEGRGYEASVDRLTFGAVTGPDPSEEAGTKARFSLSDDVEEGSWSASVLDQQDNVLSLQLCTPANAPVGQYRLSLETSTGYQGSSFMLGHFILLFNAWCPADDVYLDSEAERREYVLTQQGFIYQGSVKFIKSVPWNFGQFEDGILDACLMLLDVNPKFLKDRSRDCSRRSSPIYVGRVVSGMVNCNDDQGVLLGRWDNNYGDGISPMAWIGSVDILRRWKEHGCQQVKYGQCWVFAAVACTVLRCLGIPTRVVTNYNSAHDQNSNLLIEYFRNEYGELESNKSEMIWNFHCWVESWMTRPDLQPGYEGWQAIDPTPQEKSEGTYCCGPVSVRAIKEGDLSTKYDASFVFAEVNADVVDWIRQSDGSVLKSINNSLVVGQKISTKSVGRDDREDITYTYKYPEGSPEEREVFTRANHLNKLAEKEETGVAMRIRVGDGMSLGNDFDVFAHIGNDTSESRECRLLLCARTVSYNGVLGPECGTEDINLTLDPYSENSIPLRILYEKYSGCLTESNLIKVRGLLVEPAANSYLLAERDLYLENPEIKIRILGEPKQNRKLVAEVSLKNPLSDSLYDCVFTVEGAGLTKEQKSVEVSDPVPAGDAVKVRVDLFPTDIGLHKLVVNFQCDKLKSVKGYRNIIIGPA
In words: cell-based or functional assay.

In experiment [5] the target is T3, rat TG2. Kind of experiment: western blot and ELISA.
For experiment [6], the target named is T1, human transglutaminase type 2 (TG2). Kind of experiment: SPR (Biacore T200), antibody captured on anti-human IgG1 Fc chip, human TG2 injected; +Ca2+. The method, then:
(§3) FIG. 45: Human TG2 binding to cAB003 immobilised antibody by Biacore. The association phases of human TG2 injections over the cAB003-coated biosensor at 25, 50, 100 and 200 nM, including in duplicate at 50 nM, are shown on the left. From the same experiment, two long dissociation phases were collected, as shown on the right.
as §1, with “For each of human and cynomolgus monkey TG2, at least 5 injections at a variety of concentrations were performed in at least two separate experiments.” left out
as §2

Experiment [7] has the same target. In words: SPR (Biacore T200), antibody captured on anti-human IgG1 Fc chip, human TG2 injected; -Ca2+. The method, then:
as §3
as §1, with “For each of human and cynomolgus monkey TG2, at least 5 injections at a variety of concentrations were performed in at least two separate experiments.” left out
as §2

Experiment [8] concerns the target T2, cynomolgus monkey TG2. Kind of experiment: SPR (Biacore T200), antibody captured on anti-human IgG1 Fc chip, cynomolgus TG2 injected; +Ca2+. The method, then:
as §1, §2

The target in experiment [9] is T2, cynomolgus monkey TG2. In words: SPR (Biacore T200), antibody captured on anti-human IgG1 Fc chip, cynomolgus TG2 injected; -Ca2+. The method, then: as §1, §2

Changes are numbered by the printed parent chain.

B1: hBB001AA humanised BB7 antibody (BB7 RHA with BB7 RKA) (antibody, V domains shown)
VH: EVQLLESGGGLVQPGGSLRLSCAASGIIFSSSAMSWVRQAPGKGLEWVATISSGGRSTYYPDSVKGRFTVSRDSSKNTLYLQMNSLRAEDTAVYYCAKLISPYWGQGTLVTVSS
VL: DIKMTQSPSSLSASVGDRVTITCKASQDINSYLTWFQQKPGKAPKTLIYLTNRLMDGVPSRFSGSGSGQEFLLTISSLQPEDFATYYCLQYVDFPYTFGQGTKVEIK
notes: The name AA is read as heavy version RHA + kappa version RKA; also called hBB01AA
In the case of B1, in [1], the “IC50, inhibition of extracellular TG2 activity of HK2 cells (biotin cadaverine incorporation into fibronectin)” value came out at 19800 pM. For the same molecule, in experiment [2], the kon is 270000 M⁻¹ s⁻¹. In the experiment with cynomolgus monkey TG2 [3], this molecule had a Kd of under 30 pM, a koff of under 1e-05 s⁻¹ and a kon of 300000 M⁻¹ s⁻¹.

B2: hAB004 (hAB001AE) humanised AB1 antibody, heavy chain version RHA with light chain version RKE (antibody, V domains shown)
VH: B1 VH with I27F, I28T, A49S, S53V, R56G, S57K, V70I, S74N, P102L
VL: EIVLTQSPSSLSASVGDRVTITCKASQDINSYLTWYQQKPGKAPKLLIYRTNRLFDGVPSRFSGSGSGTDFFFTISSLQPEDFGTYYCLQYDDFPYTFGGGTKLEIK
notes: Captured by anti-human IgG1 Fc in SPR
For the molecule B2, binding in the experiment with cynomolgus monkey TG2 [3] was characterised by a dissociation constant (Kd) of 11 pM.

B3: hBB001BB humanised BB7 antibody (BB7 RHB with BB7 RKB) (antibody, V domains shown)
VH: B1 VH with I27F, I28T, A49S, V70I, S74N
VL: B1 VL with K3Q, T46S, Q69T, E70D, L72F
notes: The name BB is read as heavy version RHB + kappa version RKB
Take B3: in [1], the “IC50, inhibition of extracellular TG2 activity of HK2 cells (biotin cadaverine incorporation into fibronectin)” value stood at 4900 pM. In addition, in experiment [2], the Kd was under 40 pM, the dissociation rate constant (koff) was under 1e-05 s⁻¹ and the on-rate (kon) was 240000 M⁻¹ s⁻¹. Further, in the experiment with cynomolgus monkey TG2 [3], the dissociation constant Kd was determined as 140 pM, the off-rate (koff) stood at 3.7e-05 s⁻¹ and the kon amounted to 270000 M⁻¹ s⁻¹.

B4: DH2 murine monoclonal anti-TG2 antibody (antibody, V domains shown)
VH: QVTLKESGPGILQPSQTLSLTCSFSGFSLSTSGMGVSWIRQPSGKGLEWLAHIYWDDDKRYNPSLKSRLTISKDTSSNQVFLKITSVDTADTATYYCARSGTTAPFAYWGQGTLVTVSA
VL: QIVLTQSPAIMSASPGEKVTMTCSASSSVSYMYWYQQKPGSSPRLLIYDTSNLASGVPVRFSGSGSGTSYSLTISRMEAEDAATFYCQQWSSSPLTFGAGTKLELK
Consider B4, for which the “IC50, 3H-putrescine incorporation TG activity assay” value with rat TG2 [4] is 0.000223 mg/ml of IgG (amount required to inhibit 1 ng of TG2).

B5: DD9 murine monoclonal anti-TG2 antibody (antibody, V domains shown)
VH: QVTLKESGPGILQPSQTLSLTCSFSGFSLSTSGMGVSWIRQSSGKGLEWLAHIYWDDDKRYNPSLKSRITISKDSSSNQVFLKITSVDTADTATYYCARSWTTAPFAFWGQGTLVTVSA
VL: B4 VL with S30D, E78G, F85Y, S91N
notes: Mouse IgG from hybridoma (gamma-2a primer MHCG2A, kappa); also called mDD9001
On to B5, for which, in the experiment with rat TG2 [5], the binding result is listed as “binds”.

B6: cAB003 chimeric anti-TG2 antibody (murine AB1 variable regions, human IgG1 and human kappa) (antibody, V domains shown)
VH: EVQLVESGGGLVKPGGSLKLSCAASGFTLSSSAMSWVRQTPDRRLEWVATISVGGGKTYYPDSVKGRFTISRDNAKNTLYLQMNSLRSEDTAMYYCAKLISLYWGQGTTLTVSS
VL: DIKMTQSPSSMYASLGERVTITCKASQDINSYLTWFQQKPGKSPKTLIYRTNRLFDGVPSRFSGSGSGQDFFLTISSLEYEDMGIYYCLQYDDFPYTFGGGTKLEIK
notes: The versions differ only in the first 7 residues; also called chimeric AB1
As for B6, the dissociation constant (Kd) in experiment [6] was under 60 pM; in experiment [7] it was under 100 pM; with cynomolgus monkey TG2 [8], 50 pM; in the experiment with cynomolgus monkey TG2 [9], 93 pM. For the same molecule, the koff in experiment [6] was under 1e-05 s⁻¹; in experiment [7] it was under 1e-05 s⁻¹; in the experiment with cynomolgus monkey TG2 [8], 1.2e-05 s⁻¹; in the experiment with cynomolgus monkey TG2 [9] it was 1.3e-05 s⁻¹. Also, the kon in experiment [6] was 170000 M⁻¹ s⁻¹; in [7], 86000 M⁻¹ s⁻¹; with cynomolgus monkey TG2 [8], 240000 M⁻¹ s⁻¹; with cynomolgus monkey TG2 [9], 140000 M⁻¹ s⁻¹.

B7: BB7 murine monoclonal anti-TG2 antibody (antibody, V domains shown)
VH: AVQLVESGGGLVKPGGSLKLSCAASGIIFSSSAMSWVRQTPEKRLEWVATISSGGRSTYYPDSVKGRFTVSRDSAKNTLYLQMDSLRSEDTAIYYCAKLISPYWGQGTTLTVSS
VL: B6 VL with D1A, T20I, R50L, F55M, D70E, F72L, S77G, Y80H, D92V
notes: Mouse IgG from hybridoma (gamma-1 primer MHCG1, kappa); also called mBB001
On to B7, for which the binding result with rat TG2 [5] was “binds”.
